Variants at the floor of the assay were thinned out.
Key:
biotinyl-Met-oxazolone = assay: self-aminoacylation, catalytic enhancement (BMO) (fold over background); higher = more active; k-Seq, kA / k0A0; sequences stand for … in GGGAAUGGAUCCACAUCUACGAAUUC…UUCACUGCAGACUUGACGAAGCUG
Outline: (§1)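 The uncatalyzed rate is the low-activity peak of a bimodal Gaussian fit, and catalytic enhancement is median kA divided by it. The kA values came from pseudo-first-order fits, with 1000 bootstraps, of per-sequence fraction reacted measured by streptavidin capture, triplicate qPCR and Illumina sequencing. Mutagenized RNA pools with a 21-nt variable region (0.43 μM) were reacted with each biotinyl-aminoacyl-oxazolone at 2–1250 μM in 50 μL HEPES/NaCl/KCl/MgCl2/CaCl2 buffer with 5% acetonitrile, pH 6.9–7.0, for 90 minutes at room temperature.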

biotinyl-Phe-oxazolone = assay: self-aminoacylation, catalytic enhancement (BFO) (fold over background); higher = more active; k-Seq, kA / k0A0; sequences stand for … in GGGAAUGGAUCCACAUCUACGAAUUC…UUCACUGCAGACUUGACGAAGCUG
Outline: as §1

biotinyl-Ile-oxazolone = assay: self-aminoacylation, catalytic enhancement (BIO) (fold over background); higher = more active; k-Seq, kA / k0A0; sequences stand for … in GGGAAUGGAUCCACAUCUACGAAUUC…UUCACUGCAGACUUGACGAAGCUG
Outline: as §1

biotinyl-Trp-oxazolone = assay: self-aminoacylation, catalytic enhancement (BWO) (fold over background); higher = more active; k-Seq, kA / k0A0; sequences stand for … in GGGAAUGGAUCCACAUCUACGAAUUC…UUCACUGCAGACUUGACGAAGCUG
Outline: as §1

biotinyl-Leu-oxazolone = assay: self-aminoacylation, catalytic enhancement (BLO) (fold over background); higher = more active; k-Seq, kA / k0A0; sequences stand for … in GGGAAUGGAUCCACAUCUACGAAUUC…UUCACUGCAGACUUGACGAAGCUG
Outline: as §1

biotinyl-Val-oxazolone = assay: self-aminoacylation, catalytic enhancement (BVO) (fold over background); higher = more active; k-Seq, kA / k0A0; sequences stand for … in GGGAAUGGAUCCACAUCUACGAAUUC…UUCACUGCAGACUUGACGAAGCUG
Outline: as §1

| Sequence | self-aminoacylation (biotinyl-Met-oxazolone) | self-aminoacylation (biotinyl-Phe-oxazolone) | self-aminoacylation (biotinyl-Ile-oxazolone) | self-aminoacylation (biotinyl-Trp-oxazolone) | self-aminoacylation (biotinyl-Leu-oxazolone) | self-aminoacylation (biotinyl-Val-oxazolone) |
| --- | --- | --- | --- | --- | --- | --- |
| AUUACCCUGCCCAUCGAGUGA [Fam2.1 aminoacylation ribozyme variant] | 5.7 | 38.9 | 2.94 | 6.52 | 5.53 | 3.23 |
| AUUACCCUGCUCAGCGAGUGA [Fam2.1 aminoacylation ribozyme variant] | 3.61 | 18.5 | 2.24 | 4.77 | 3.79 | 2.76 |
| AUUACCCUGCUCAUAGAGUGA [Fam2.1 aminoacylation ribozyme variant] | 9.74 | 57.5 | 3.87 | 10.7 | 8.96 | 4.28 |
| AUUACCCUGCUCAUCGAAUGA [Fam2.1 aminoacylation ribozyme variant] | 0.845 | 0.772 | 0.867 | 1.32 | 0.735 | 0.974 |
| AUUACCCUGCUCGUCGAGUGA [Fam2.1 aminoacylation ribozyme variant] | 0.533 | 0.752 | 0.725 | 0.43 | 0.689 | 0.766 |
| AUUACCCUGCUUAUCGAGUGA [Fam2.1 aminoacylation ribozyme variant] | 1.64 | 2.4 | 1.29 | 2.33 | 1.96 | 1.37 |
| AUUACCCUGGAAAUCGAGUGA [Fam2.1 aminoacylation ribozyme variant] | 19.4 | 149 | 8.3 | 22.6 | 20.8 | 8.39 |
| AUUACCCUGGACACCGAGUGA [Fam2.1 aminoacylation ribozyme variant] | 4.14 | 4.62 | 2.15 | 3.99 | 3.5 | 1.83 |
| AUUACCCUGGACAUGGAGUGA [Fam2.1 aminoacylation ribozyme variant] | 8.57 | 57.2 | 3.74 | 10.6 | 9.2 | 3.69 |
| AUUACCCUGGCCAUCCAGUGA [Fam2.1 aminoacylation ribozyme variant] | 7.34 | 35.9 | 4.38 | 7.75 | 8.23 | 4.01 |
| AUUACCCUGGCCAUCGAAUGA [Fam2.1 aminoacylation ribozyme variant] | 0.928 | 1.84 | 1 | 0.331 | 1.4 | 1.31 |
| AUUACCCUGGCCAUCGAGUGG [Fam2.1 aminoacylation ribozyme variant] | 1.72 | 2.71 | 1.26 | 1.66 | 1.95 | 1.17 |
| AUUACCCUGGCCAUCGCGUGA [Fam2.1 aminoacylation ribozyme variant] | 6.31 | 56.3 | 4.28 | 8.64 | 11 | 4.81 |
| AUUACCCUGGCCAUCGGGUGA [Fam2.1 aminoacylation ribozyme variant] | 8.01 | 49.1 | 3.8 | 11.8 | 9.65 | 6.42 |
| AUUACCCUGGCCCUCGAGUGA [Fam2.1 aminoacylation ribozyme variant] | 4.04 | 24.1 | 2.5 | 3.6 | 4.5 | 3.42 |
| AUUACCCUGGGCAACGAGUGA [Fam2.1 aminoacylation ribozyme variant] | 7.64 | 57.4 | 3.81 | 10.3 | 10.3 | 4 |
| AUUACCCUGGGCAUCAAGUGA [Fam2.1 aminoacylation ribozyme variant] | 1.76 | 2.16 | 1.16 | 1.64 | 1.73 | 1.37 |
| AUUACCCUGGGCAUGGAGUGA [Fam2.1 aminoacylation ribozyme variant] | 7.29 | 40.7 | 3.35 | 8.01 | 8.39 | 3.13 |
| AUUACCCUGGGCCUCGAGUGA [Fam2.1 aminoacylation ribozyme variant] | 3.15 | 22.6 | 2.41 | 4.65 | 3.74 | 2.61 |
| AUUACCCUGGUAACCGAGUGA [Fam2.1 aminoacylation ribozyme variant] | 12.5 | 96.5 | 5.22 | 14.2 | 12.2 | 5.58 |
| AUUACCCUGGUAAUCAAGUGA [Fam2.1 aminoacylation ribozyme variant] | 3.27 | 16.1 | 1.71 | 3.48 | 3.14 | 1.73 |
| AUUACCCUGGUAAUCGAGAGA [Fam2.1 aminoacylation ribozyme variant] | 0.722 | 0.58 | 1.02 | 0.573 | 0.723 | 0.78 |
| AUUACCCUGGUAAUCGAGUGU [Fam2.1 aminoacylation ribozyme variant] | 5.16 | 19.2 | 2.17 | 4.99 | 5.04 | 2.22 |
| AUUACCCUGGUAAUCUAGUGA [Fam2.1 aminoacylation ribozyme variant] | 13 | 86.4 | 5.57 | 15.9 | 12.4 | 5.92 |
| AUUACCCUGGUAAUGGAGUGA [Fam2.1 aminoacylation ribozyme variant] | 8.43 | 55.9 | 3.32 | 9.08 | 8.53 | 3.73 |
| AUUACCCUGGUCAACGACUGA [Fam2.1 aminoacylation ribozyme variant] | 0.47 | 0.635 | 0.653 | 0.514 | 0.523 | 0.66 |

| Sequence | self-aminoacylation (biotinyl-Met-oxazolone) | self-aminoacylation (biotinyl-Phe-oxazolone) | self-aminoacylation (biotinyl-Ile-oxazolone) | self-aminoacylation (biotinyl-Trp-oxazolone) | self-aminoacylation (biotinyl-Leu-oxazolone) | self-aminoacylation (biotinyl-Val-oxazolone) |
| --- | --- | --- | --- | --- | --- | --- |
| AUUACCCUGGUCAACGAGUGA [Fam2.1 aminoacylation ribozyme variant] | 6.11 | 22.4 | 3.43 | 7.31 | 5.99 | 3.6 |
| AUUACCCUGGUCAACGAGUGC [Fam2.1 aminoacylation ribozyme variant] | 0.848 | 0.478 | 0.908 | 0.892 | 1.01 | 0.903 |
| AUUACCCUGGUCAACGCGUGA [Fam2.1 aminoacylation ribozyme variant] | 10.8 | 72.1 | 4.65 | 12.3 | 12.5 | 6.15 |
| AUUACCCUGGUCAACGGGUGA [Fam2.1 aminoacylation ribozyme variant] | 9.43 | 46.6 | 4.83 | 10.8 | 9.68 | 4.61 |
| AUUACCCUGGUCAACUAGUGA [Fam2.1 aminoacylation ribozyme variant] | 8.64 | 24.9 | 3.93 | 9.81 | 6.83 | 4.39 |
| AUUACCCUGGUCACCGAGUCA [Fam2.1 aminoacylation ribozyme variant] | 1.45 | 0.799 | 1.43 | 1.84 | 1.75 | 1.49 |
| AUUACCCUGGUCACCGAGUGC [Fam2.1 aminoacylation ribozyme variant] | 1.43 | 3.95 | 1.76 | 2.11 | 2.61 | 1.45 |
| AUUACCCUGGUCACCGGGUGA [Fam2.1 aminoacylation ribozyme variant] | 14.5 | 87.4 | 6.24 | 14.1 | 14.8 | 7.91 |
| AUUACCCUGGUCACGGAGUGA [Fam2.1 aminoacylation ribozyme variant] | 7.34 | 37.5 | 3.43 | 8.54 | 7.68 | 3.92 |
| AUUACCCUGGUCAGAGAGUGA [Fam2.1 aminoacylation ribozyme variant] | 7.04 | 19.9 | 3.18 | 8.25 | 6.71 | 3.41 |
| AUUACCCUGGUCAGCGACUGA [Fam2.1 aminoacylation ribozyme variant] | 1.3 | 1.03 | 1.12 | 1.94 | 1.05 | 1.31 |
| AUUACCCUGGUCAGCGCGUGA [Fam2.1 aminoacylation ribozyme variant] | 5.84 | 35.3 | 3.45 | 6.87 | 6.5 | 3.95 |
| AUUACCCUGGUCAUAGAGCGA [Fam2.1 aminoacylation ribozyme variant] | 1.03 | 1.37 | 1.05 | 1.18 | 1.04 | 1.04 |
| AUUACCCUGGUCAUAGAGUCA [Fam2.1 aminoacylation ribozyme variant] | 0.82 | 0.531 | 0.884 | 0.529 | 0.962 | 0.974 |
| AUUACCCUGGUCAUAGAGUGG [Fam2.1 aminoacylation ribozyme variant] | 2.18 | 3.37 | 1.37 | 1.18 | 2.31 | 1.43 |
| AUUACCCUGGUCAUAUAGUGA [Fam2.1 aminoacylation ribozyme variant] | 11.2 | 69.1 | 5.04 | 12.4 | 10.7 | 5.51 |
| AUUACCCUGGUCAUCCAAUGA [Fam2.1 aminoacylation ribozyme variant] | 1.2 | 1.66 | 0.938 | 0.429 | 1.47 | 0.942 |
| AUUACCCUGGUCAUCCAGGGA [Fam2.1 aminoacylation ribozyme variant] | 2.82 | 7.32 | 1.91 | 2.26 | 1.84 | 1.67 |
| AUUACCCUGGUCAUCGAGAUA [Fam2.1 aminoacylation ribozyme variant] | 3.42 | 7.71 | 1.78 | 3.19 | 3.19 | 2.2 |
| AUUACCCUGGUCAUCGAGUAC [Fam2.1 aminoacylation ribozyme variant] | 6.05 | 17.2 | 2.32 | 4.57 | 5.94 | 3.03 |
| AUUACCCUGGUCAUCGAGUAU [Fam2.1 aminoacylation ribozyme variant] | 26.9 | 97.7 | 8 | 24.4 | 23.6 | 9.24 |
| AUUACCCUGGUCAUCGAGUGA [Fam2.1 aminoacylation ribozyme variant] | 91.3 | 657 | 34.6 | 99.1 | 86.9 | 37.9 |
| AUUACCCUGGUCAUCGAGUGC [Fam2.1 aminoacylation ribozyme variant] | 11.4 | 24.9 | 3.92 | 8.98 | 10.9 | 4.71 |
| AUUACCCUGGUCAUCGAGUGG [Fam2.1 aminoacylation ribozyme variant] | 56.9 | 361 | 16.3 | 52.1 | 55.4 | 18.5 |
| AUUACCCUGGUCAUCGAGUUC [Fam2.1 aminoacylation ribozyme variant] | 1.88 | 4.38 | 1.02 | 1.54 | 2.17 | 1.53 |

Source: the supplement of paper PMC9233669
